Consider one substance from publication PMC4630614.

The target in the assay is UbcA1, ubiquitin-conjugating enzyme E2 from Agrocybe aegerita (Agrocybe aegerita). The experiment in a line: AUC; velocity sedimentation, Beckman XL-I, 4 °C, 40 μM protein, 50 mM Tris pH 7.5, 150 mM NaCl, 60,000 rpm, c(S) of Sedfit; monomer to dimer.

In general, stoichiometry N refers to a count of units in the complex or per binding partner. In the case of “UbcA1, ubiquitin-conjugating enzyme E2 from Agrocybe aegerita”, the monomer : dimer ratio (monomer : dimer) stood at 32.6 and the stoichiometry N was 2.
